# Legend:
# HeLa Kyoto [1] = assay: solubility in G1/S (NP-40 vs SDS abundance) (log2 ratio); higher = more soluble; conditions: cell cycle stage: G1/S
# HeLa Kyoto [2] = assay: thermal stability score vs G1/S (z-score of summed log2 fold changes over temperatures); higher = more thermally stable than in G1/S
# HeLa Kyoto [3] = assay: solubility change mitosis vs G1/S (difference of NP-40 vs SDS log2 ratios) (log2 ratio difference); higher = more soluble in mitosis
# HeLa Kyoto [4] = assay: melting temperature (median over replicates), in situ; higher = more thermally stable
# [5] = cell cycle stage: early G1 (4.5 h after nocodazole release)
# 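Wherever melting temperature (median over replicates), in situ is given: HeLa Kyoto cells synchronized by double thymidine or nocodazole block, proteins quantified by TMT10plex mass spectrometry, three independent biological replicates.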
# 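Wherever solubility change mitosis vs G1/S (difference of NP-40 vs SDS log2 ratios) is given: synchronized HeLa Kyoto cells (double thymidine block for G1/S, nocodazole release for mitosis), protein amounts in NP-40 versus SDS lysates quantified by mass spectrometry, three biological replicates.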
# 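Wherever solubility in G1/S (NP-40 vs SDS abundance) is given: HeLa Kyoto cells arrested at G1/S by double thymidine block, proteins quantified by TMT10plex mass spectrometry in mild NP-40 versus SDS extracts, three biological replicates.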
# 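Wherever thermal stability score vs G1/S (z-score of summed log2 fold changes over temperatures) is given: synchronized HeLa Kyoto cells, proteins quantified by TMT10plex mass spectrometry, three biological replicates, mitosis taken 0.5 h after nocodazole release, G1/S directly after double thymidine block.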
Sequence,solubility in G1/S (log2) (HeLa Kyoto [1]),thermal stability score (HeLa Kyoto [2]; [5]),thermal stability score (HeLa Kyoto [2]; cell cycle stage: mitosis),solubility change mitosis (log2) (HeLa Kyoto [3]),melting temperature (HeLa Kyoto [4]; cell cycle stage: G1/S),melting temperature (HeLa Kyoto [4]; cell cycle stage: mitosis)
MSEAGGRGCGSPVPQRARWRLVAATAAFCLVSATSVWTAGAEPMSREEKQKLGNQVLEMFDHAYGNYMEHAYPADELMPLTCRGRVRGQEPSRGDVDDALGKFSLTLIDSLDTLVVLNKTKEFEDAVRKVLRDVNLDNDVVVSVFETNIRVLGGLLGGHSLAIMLKEKGEYMQWYNDELLQMAKQLGYKLLPAFNTTSGLPYPRINLKFGIRKPEARTGTETDTCTACAGTLILEFAALSRFTGATIFEEYARKALDFLWEKRQRSSNLVGVTINIHTGDWVRKDSGVGAGIDSYYEYLLKAYVLLGDDSFLERFNTHYDAIMRYISQPPLLLDVHIHKPMLNARTWMDALLAFFPGLQVLKGDIRPAIETHEMLYQVIKKHNFLPEAFTTDFRVHWAQHPLRPEFAESTYFLYKATGDPYYLEVGKTLIENLNKYARVPCGFAAMKDVRTGSHEDRMDSFFLAEMFKYLYLLFADKEDIIFDIEDYIFTTEAHLLPLWLSTTNQSISKKNTTSEYTELDDSNFDWTCPNTQILFPNDPLYAQSIREPLKNVVDKSCPRGIIRVEESFRSGAKPPLRARDFMATNPEHLEILKKMGVSLIHLKDGRVQLVQHAIQAASSIDAEDGLRFMQEMIELSSQQQKEQQLPPRAVQIVSHPFFGRVVLTAGPAQFGLDLSKHKETRGFVASSKPSNGCSELTNPEAVMGKIALIQRGQCMFAEKARNIQNAGAIGGIVIDDNEGSSSDTAPLFQMAGDGKDTDDIKIPMLFLFSKEGSIILDAIREYEEVEVLLSDKAKDRDPEMENEEQPSSENDSQNQSGEQISSSSQEVDLVDQESSEENSLNSHPESLSLADMDNAASISPSEQTSNPTENHETTNLNGECTDLDNQLQEQSETEEDSNPNVSWGKKVQPIDSILADWNEDIEAFEMMEKDEL [EDEM3],0.311,0.67,0.929,-0.156,53.5 °C,53.7 °C
MSAHNRGTELDLSWISKIQVNHPAVLRRAEQIQARRTVKKEWQAAWLLKAVTFIDLTTLSGDDTSSNIQRLCYKAKYPIREDLLKALNMHDKGITTAAVCVYPARVCDAVKALKAAGCNIPVASVAAGFPAGQTHLKTRLEEIRLAVEDGATEIDVVINRSLVLTGQWEALYDEIRQFRKACGEAHLKTILATGELGTLTNVYKASMIAMMAGSDFIKTSTGKETVNATFPVAIVMLRAIRDFFWKTGNKIGFKPAGGIRSAKDSLAWLSLVKEELGDEWLKPELFRIGASTLLSDIERQIYHHVTGRYAAYHDLPMS [DERA],-0.131,-3.39,-3.58,-0.0424,56.1 °C,56.1 °C
MADSKEGVLPLTAASTAPISFGFTRTSARRRLADSGDGAGPSPEEKDFLKTVEGRELQSVKPQEAPKELVIPLIQNGHRRQPPARPPGPSTDTGALADGVVSQAVKELIAESKKSLEERENAGVDPTLAIPMIQKGCTPSGEGADSEPRAETVPEEANYEAVPVEAYGLAMLRGMGWKPGEGIGRTFNQVVKPRVNSLRPKGLGLGANLTEAQALTPTGPSRMPRPDEEQEKDKEDQPQGLVPGGAVVVLSGPHRGLYGKVEGLDPDNVRAMVRLAVGSRVVTVSEYYLRPVSQQEFDKNTLDLRQQNGTASSRKTLWNQELYIQQDNSERKRKHLPDRQDGPAAKSEKAAPRSQHWLHRDLRVRFVDNMYKGGQYYNTKMIIEDVLSPDTCVCRTDEGRVLEGLREDMLETLVPKAEGDRVMVVLGPQTGRVGHLLSRDRARSRALVQLPRENQVVELHYDAICQYMGPSDTDDD [GPKOW],0.393,0.906,2.23,-0.0336,48.8 °C,49.8 °C
MAARRITQETFDAVLQEKAKRYHMDASGEAVSETLQFKAQDLLRAVPRSRAEMYDDVHSDGRYSLSGSVAHSRDAGREGLRSDVFPGPSFRSSNPSISDDSYFRKECGRDLEFSHSDSRDQVIGHRKLGHFRSQDWKFALRGSWEQDFGHPVSQESSWSQEYSFGPSAVLGDFGSSRLIEKECLEKESRDYDVDHPGEADSVLRGGSQVQARGRALNIVDQEGSLLGKGETQGLLTAKGGVGKLVTLRNVSTKKIPTVNRITPKTQGTNQIQKNTPSPDVTLGTNPGTEDIQFPIQKIPLGLDLKNLRLPRRKMSFDIIDKSDVFSRFGIEIIKWAGFHTIKDDIKFSQLFQTLFELETETCAKMLASFKCSLKPEHRDFCFFTIKFLKHSALKTPRVDNEFLNMLLDKGAVKTKNCFFEIIKPFDKYIMRLQDRLLKSVTPLLMACNAYELSVKMKTLSNPLDLALALETTNSLCRKSLALLGQTFSLASSFRQEKILEAVGLQDIAPSPAAFPNFEDSTLFGREYIDHLKAWLVSSGCPLQVKKAEPEPMREEEKMIPPTKPEIQAKAPSSLSDAVPQRADHRVVGTIDQLVKRVIEGSLSPKERTLLKEDPAYWFLSDENSLEYKYYKLKLAEMQRMSENLRGADQKPTSADCAVRAMLYSRAVRNLKKKLLPWQRRGLLRAQGLRGWKARRATTGTQTLLSSGTRLKHHGRQAPGLSQAKPSLPDRNDAAKDCPPDPVGPSPQDPSLEASGPSPKPAGVDISEAPQTSSPCPSADIDMKTMETAEKLARFVAQVGPEIEQFSIENSTDNPDLWFLHDQNSSAFKFYRKKVFELCPSICFTSSPHNLHTGGGDTTGSQESPVDLMEGEAEFEDEPPPREAELESPEVMPEEEDEDDEDGGEEAPAPGGAGKSEGSTPADGLPGEAAEDDLAGAPALSQASSGTCFPRKRISSKSLKVGMIPAPKRVCLIQEPKVHEPVRIAYDRPRGRPMSKKKKPKDLDFAQQKLTDKNLGFQMLQKMGWKEGHGLGSLGKGIREPVSVGTPSEGEGLGADGQEHKEDTFDVFRQRMMQMYRHKRANK [SUGP2],-0.497,1.78,2.89,0.277,46 °C,48.8 °C

# Source: the supplement of paper PMC5998384
